From US20040191812, “Target-dependent transcription using deletion mutants of N4 RNA polymerase” (published 2004) come the findings set out here.

Numbering of substitutions follows the chain as printed.

Data set [1] deals with N4 mini-vRNAP K670A K670A (mini-vRNAP numbering) (Bacteriophage N4) (UniProt Q859P9). Kind of data set: filter. To be noted: wild-type affinity; method inferred.
For data set [2], the target named is T1, N4 mini-vRNAP (His-tagged) (Bacteriophage N4, UniProt Q859P9 SEQ:34-1143).
T1 chain: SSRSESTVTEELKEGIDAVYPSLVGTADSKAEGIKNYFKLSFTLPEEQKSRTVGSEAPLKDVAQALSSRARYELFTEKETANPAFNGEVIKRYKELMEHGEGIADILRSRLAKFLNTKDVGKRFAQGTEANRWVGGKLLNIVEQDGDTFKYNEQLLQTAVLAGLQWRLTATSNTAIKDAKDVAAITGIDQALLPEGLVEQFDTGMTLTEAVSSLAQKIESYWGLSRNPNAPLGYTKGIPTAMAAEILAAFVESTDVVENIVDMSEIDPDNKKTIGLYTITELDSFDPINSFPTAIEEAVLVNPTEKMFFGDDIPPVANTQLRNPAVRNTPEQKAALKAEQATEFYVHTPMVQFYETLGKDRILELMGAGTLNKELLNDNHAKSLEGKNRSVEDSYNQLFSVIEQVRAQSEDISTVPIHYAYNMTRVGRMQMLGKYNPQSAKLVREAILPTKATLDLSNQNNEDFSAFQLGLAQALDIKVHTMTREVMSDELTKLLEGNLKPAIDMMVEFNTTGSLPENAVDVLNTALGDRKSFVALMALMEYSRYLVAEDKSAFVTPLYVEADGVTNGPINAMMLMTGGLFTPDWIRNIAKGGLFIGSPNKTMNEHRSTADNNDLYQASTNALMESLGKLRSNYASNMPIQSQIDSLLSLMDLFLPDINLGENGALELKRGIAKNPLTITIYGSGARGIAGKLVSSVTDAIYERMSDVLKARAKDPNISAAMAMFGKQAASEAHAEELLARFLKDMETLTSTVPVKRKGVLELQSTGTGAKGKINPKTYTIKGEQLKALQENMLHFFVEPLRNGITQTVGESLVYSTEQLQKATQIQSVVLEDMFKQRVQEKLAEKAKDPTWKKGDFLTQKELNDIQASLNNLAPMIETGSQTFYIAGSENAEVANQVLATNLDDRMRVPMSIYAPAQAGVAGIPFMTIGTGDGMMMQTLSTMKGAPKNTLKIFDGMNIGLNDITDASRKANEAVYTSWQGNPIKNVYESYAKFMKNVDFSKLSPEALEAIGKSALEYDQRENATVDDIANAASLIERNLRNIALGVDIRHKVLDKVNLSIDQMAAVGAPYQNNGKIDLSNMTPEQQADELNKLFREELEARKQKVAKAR
The data set is described as follows: filter; wild-type affinity; UV crosslinks. To be noted: tags: N-terminal hexahistidine (pBAD); label: 32P end-label; hairpin. From the text:
To study the sequence determinants of promoter binding, 20 base-long promoter oligonucleotides, containing the wild-type vRNAP promoter P2 sequence and substituted at every position with a single 5-Iodo-dU, were used. Whenever substitutions were made in the stem, the corresponding pairing base was changed to A. These oligonucleotides were ³²P end-labeled and used to determine the enzyme's affinity for promoter DNAs by a filter binding assay and the ability to crosslink to mini-vRNAP upon UV irradiation at 320 nm.

A further data set deals with T2, N4 mini-vRNAP Y678F (Bacteriophage N4, UniProt Q859P9 SEQ:34-1143).
T2 chain: T1 chain with Y682F
The data set is described as follows: UV crosslinking as well as wild type. As to conditions: tags: N-terminal hexahistidine (pBAD); label: 32P end-label; hairpin.

With “TCCAAAAGAAGCGGAGCTTC [P2 wild-type 20-mer promoter oligo]”, the binding signal (fold of wild type) in data set [1] amounted to 1.

B1: P2 5-IdU at +3 (ssDNA)
DNA: TCCAAAAGAAGCGGAGCTTC
modifications: 5-iodo-dU at +3 [1 (5-iodo-dU, promoter position +3)]
For the molecule B1, the binding result (in data set [2]; with N4 mini-vRNAP Y678F) was “binds” throughout.

B2: P2 5-IdU at -11 (ssDNA)
DNA: TCCAAAAGAAGCGTAGCTTC
modifications: 5-iodo-dU at -11 [14 (5-iodo-dU, promoter position -11)]
Regarding B2, the binding result with N4 mini-vRNAP Y678F is “binds”.

B3: P2 5-IdU at +2 (ssDNA)
DNA: TTCAAAAGAAGCGGAGCTTC
modifications: 5-iodo-dU at +2 [2 (5-iodo-dU, promoter position +2)]
Turning to B3, the binding result in data set [2] was “binds”.

B4: P2 5-IdU at +1 (ssDNA)
DNA: TCTAAAAGAAGCGGAGCTTC
modifications: 5-iodo-dU at +1 [3 (5-iodo-dU, promoter position +1)]
As to B4, the binding result in data set [2] is given as “binds”.
